The target of one experiment is histone H3 (UniProt P68432). The experiment is described as follows: fluorescence spectroscopy (acrylodan-labelled PfNapS titrated with histone). The conditions noted are these: read off a plot.
The target of experiment [1] is PfNapS residues 29-221 (crystallised construct) (Plasmodium falciparum). The experiment is described as follows: crystal structure; hanging drop vapour diffusion at 20°C, 0.2 M di-ammonium tartrate, 20% PEG 3350; space group P212121, three dimers in the asymmetric unit; Se-SAD at 3.2 Å, native data to 2.8 Å.

Regarding “PfNapS labelled with acrylodan (PfNapS^dye) C47A”, the response with histone H3 (Histone H3 5 microgram) was 0.55; with histone H3 (Histone H3 10 microgram) it was 0.56; in the experiment with histone H3 (Histone H3 15 microgram), 0.6; with histone H3 (Histone H3 20 microgram), 0.61; with histone H3 (Histone H3 25 microgram), 0.64; in the experiment with histone H3 (Histone H3 30 microgram) it was 0.63.
Usually stoichiometry N stands for the number of molecules, sites or subunits per partner or assembly. For “PfNapS residues 29-221 (crystallised construct) (domain or fragment)”, the stoichiometry N in experiment [1] was 2.

(Values after article PMC2873526.)
